Assay results taken from the RNAGym collection of RNA variant scans (doi:10.1093/molbev/msab373).

B1: Azoarcus group I ribozyme (parent)
chain: GUGCCUUGCGCCGGGAAACCACGCAAGGGAUGGUGUCAAAUUCGGCGAAACCUAAGCGCCCGCCCGGGCGUAUGGCAACGCCGAGCCAAGCUUCGGCGCCUGCGCCGAUGAAGGUGUAGAGACUAGACGGCACCCACCUAAGGCAAACGCUAUGGUGAAGGCAUAGUCCAGGGAGUGGCGAAAGUCACACAAACCGG

Variants of: B1
Assay: reverse-splicing fitness (ratio to wild type); higher = more active; in vitro selection; Mg2+ level not given
Method in brief: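 An in vitro group I ribozyme library with randomized positions was T7-transcribed and gel-purified. In triplicate, 10 pmol RNA in EPPS pH 7.5 was reacted with 50 pmoles of a 30-nt RNA substrate for 1 h at 37 °C across several added MgCl2 levels (1–48 mM), then stopped with EDTA. Products were reverse transcribed from a substrate-complementary primer, PCR-amplified and sequenced (HiSeq 4000). Fitness is a variant's read proportion after selection over that before, normalised to wild type.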

| Variant | reverse-splicing fitness |
| --- | --- |
| A120U A145G C150G C169A U176C | 0.00713 |
| A120U A145G C150U C169A U176C | 0.00469 |
| A120U A145G C150U C169A U176A | 0.00538 |
| A120U A145G C150U C169A U176G | 0.00258 |
| A120U A145G C150G U176G | 0.013 |
| A120U A145G C150G U176C | 0.146 |
| A120U A145G C150G U176A | 0.084 |
| A120U C150A C169G U176G | 0.00249 |
| A120U C150A C169G U176A | 0.0106 |
| A120U C150A C169G U176C | 0.0141 |
| A120U C150A U176C | 0.172 |
| A120U C150A U176G | 0.0831 |
| A120U C150A U176A | 0.178 |
| A120U A145U C150U C169U U176G | 0.00903 |
| A120U A145U C150U C169U U176A | 0.059 |
| A120U A145U C150U C169U U176C | 0.0952 |
| A120U C150A C169A | 0.00484 |
| A120U C150A C169U | 0.038 |
| A120U C150A C169G | 0.0291 |
| A120U C169G | 0.262 |
| A120U C169A | 0.0174 |

| Variant | reverse-splicing fitness |
| --- | --- |
| A120U C169U | 0.257 |
| A145G C150G C169U U176A | 0.0192 |
| A145G C150G C169U U176G | 0.00808 |
| A145G C150G C169U U176C | 0.0454 |
| A120U A145G C150A C169U U176A | 0.0235 |
| A120U A145G C150A C169U U176C | 0.032 |
| A120U A145G C150A C169U U176G | 0.00424 |
| A145C | 0.95 |
| A145G | 0.958 |
| A120U C150A C169U U176G | 0.00432 |
| A120U C150A C169U U176C | 0.0195 |
| A120U C150A C169U U176A | 0.0178 |
| A145C C150U C169U | 0.122 |
| A145C C150U C169G | 0.0825 |
| A145C C150U C169A | 0.0428 |
| A145C C150A C169G U176A | 0.0271 |
| A145C C150A C169G U176G | 0.00531 |
| A145C C150A C169G U176C | 0.0203 |
| A120U A145C C150U C169U | 0.0928 |
| A120U A145C C150U C169A | 0.00515 |
| A120U A145C C150U C169G | 0.0691 |

| Variant | reverse-splicing fitness |
| --- | --- |
| A120U A145G C150A U176A | 0.222 |
| A120U A145G C150A U176C | 0.218 |
| A120U A145G C150A U176G | 0.063 |
| A145C C150G C169G U176A | 0.0135 |
| A145C C150G C169G U176C | 0.00959 |
| A145C C150G C169G U176G | 0.00537 |
| A120U A145U C150U C169A U176C | 0.00496 |
| A120U A145U C150U C169A U176G | 0.00234 |
| A120U A145U C150U C169A U176A | 0.00335 |
| A145C C169A U176A | 0.029 |
| A145C C169A U176C | 0.05 |
| A145C C169A U176G | 0.00461 |
| A120U A145G C150U C169U U176A | 0.0753 |
| A120U A145G C150U C169U U176G | 0.00649 |
| A120U A145G C150U C169U U176C | 0.108 |
| A145C C150G C169U U176G | 0.00549 |
| A145C C150G C169U U176A | 0.0183 |
| A145C C150G C169U U176C | 0.0427 |
| A120U C150G U176C | 0.115 |
| A120U C150G U176G | 0.0108 |
| A120U C150G U176A | 0.0739 |

| Variant | reverse-splicing fitness |
| --- | --- |
| A145G C150U C169G U176C | 0.11 |
| A145G C150U C169G U176G | 0.00685 |
| A145G C150U C169G U176A | 0.0615 |
| A145G C150U U176A | 0.844 |
| A145C C150U C169G U176A | 0.0403 |
| A145C C150U C169G U176C | 0.0444 |
| A145C C150U C169G U176G | 0.00658 |
| A145C C150U C169U U176C | 0.0741 |
| A145C C150U C169U U176A | 0.0513 |
| A145C C150U C169U U176G | 0.00838 |
| A145C U176C | 0.843 |
| A145C U176A | 0.767 |
| A145C U176G | 0.411 |
| A145G C150U C169A U176A | 0.0281 |
| A145G C150U C169A U176C | 0.0527 |
| A145G C150U C169A U176G | 0.00628 |
| A120U A145C U176C | 0.452 |
| A120U A145C U176A | 0.634 |
| A120U A145C U176G | 0.36 |
| A120U A145C C169A | 0.0147 |
